91 sequences from the supplement of paper PMC9112550, “Optimization of the antimicrobial peptide Bac7 by deep mutational scanning” (BMC Biology, 2022) can be followed below.

This data set relates to Escherichia coli TOP10. The experiment in a line: shrunken log2 fold change of peptide-encoding DNA abundance (4.5 h post-induction vs induction); higher = less antimicrobial activity (less host growth inhibition). The settings on record: time post-induction: 4.5 h; library: site-saturation at positions 5, 18, 19, 20.
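Also: peptides expressed intracellularly from a pBAD plasmid library in pooled LB shake-flask culture, induced with 0.3% L-arabinose, DNA abundance read by NGS, three biological replicates, DESeq2 with apeglm shrinkage.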

For RRIRLRPPRLPRPRPRPIFVPRP, the “shrunken log2 fold change” value is -0.0836.
For the sequence RRIRSRPPRLPRPRPRPLSYPRP, the “shrunken log2 fold change” value was -0.464.
Then RRIRMRPPRLPRPRPRPGCRPRP, with 1.22; and RRIRKRPPRLPRPRPRPCTNPRP, with -0.0404.
For RRIRGRPPRLPRPRPRPWWDPRP the value was -0.145; for RRIRYRPPRLPRPRPRPEHRPRP, 0.0623; for RRIRTRPPRLPRPRPRPVDGPRP, 0.0538.
For RRIRSRPPRLPRPRPRPQYMPRP the value was -0.695; for RRIRCRPPRLPRPRPRPFDNPRP, -0.437; for RRIRKRPPRLPRPRPRPPDCPRP, 1.03.
Regarding RRIRFRPPRLPRPRPRPIMYPRP, the “shrunken log2 fold change” value is -0.33.
For RRIRVRPPRLPRPRPRPVLLPRP the value was -0.35; for RRIRYRPPRLPRPRPRPTHAPRP, -0.0504; for RRIRNRPPRLPRPRPRPVCCPRP, -0.146.
For RRIRIRPPRLPRPRPRPFYTPRP the value was -0.324.
For RRIRWRPPRLPRPRPRPGKMPRP the value was 0.0641; for RRIRIRPPRLPRPRPRPNTFPRP, -0.926.
Consider RRIRLRPPRLPRPRPRPIAKPRP, for which the “shrunken log2 fold change” value was -0.305.
RRIRVRPPRLPRPRPRPLDIPRP: the “shrunken log2 fold change” value is -0.0121.
Regarding RRIRCRPPRLPRPRPRPYFHPRP, the “shrunken log2 fold change” value was -0.233.
Consider RRIRWRPPRLPRPRPRPMVDPRP, for which the “shrunken log2 fold change” value was -0.0461.
For the sequence RRIRGRPPRLPRPRPRPEINPRP, the “shrunken log2 fold change” value worked out at 0.797.
For RRIRERPPRLPRPRPRPPTSPRP the value was 0.0163; for RRIRLRPPRLPRPRPRPCNRPRP, 0.214.
As to RRIRPRPPRLPRPRPRPTVIPRP, the “shrunken log2 fold change” value is -0.28.
Then RRIRGRPPRLPRPRPRPPMIPRP, with -0.0528; and RRIRYRPPRLPRPRPRPLCLPRP, with -0.341.
Then RRIRLRPPRLPRPRPRPDVKPRP, with -0.488; and RRIRGRPPRLPRPRPRPMMHPRP, with 0.456; and RRIRARPPRLPRPRPRPDGVPRP, with 0.971.
For RRIRFRPPRLPRPRPRPMHQPRP the value was -0.0493; for RRIRFRPPRLPRPRPRPKAKPRP, -0.016; for RRIRVRPPRLPRPRPRPAARPRP, 0.47.
On to RRIRVRPPRLPRPRPRPPDGPRP, for which the “shrunken log2 fold change” value came to 0.422.
For the sequence RRIRSRPPRLPRPRPRPGKAPRP, the “shrunken log2 fold change” value was 0.188.
Then RRIRMRPPRLPRPRPRPNMIPRP, with -0.489; and RRIRERPPRLPRPRPRPGLRPRP, with 0.0748; and RRIRHRPPRLPRPRPRPRTLPRP, with -0.137.
For RRIRCRPPRLPRPRPRPIHFPRP the value was -0.368.
Then RRIRWRPPRLPRPRPRPFYAPRP, with -0.174; and RRIRLRPPRLPRPRPRPPMIPRP, with -0.0218; and RRIRYRPPRLPRPRPRPMGFPRP, with -0.179.
For RRIRQRPPRLPRPRPRPEHRPRP, the “shrunken log2 fold change” value was -0.271.
As to RRIRRRPPRLPRPRPRPSYNPRP, the “shrunken log2 fold change” value is -0.16.
Then RRIRSRPPRLPRPRPRPYHCPRP, with -0.255.
Then RRIRCRPPRLPRPRPRPRRQPRP, with 0.403.
Then RRIRNRPPRLPRPRPRPVSIPRP, with -0.0773; and RRIRVRPPRLPRPRPRPIPTPRP, with 0.191; and RRIRSRPPRLPRPRPRPWYPPRP, with -0.301.
Consider RRIRERPPRLPRPRPRPNGCPRP, for which the “shrunken log2 fold change” value came to 0.00429.
For the sequence RRIRSRPPRLPRPRPRPTDEPRP, the “shrunken log2 fold change” value is -0.148.
Then RRIRIRPPRLPRPRPRPNMFPRP, with -0.394.
Regarding RRIRYRPPRLPRPRPRPVSAPRP, the “shrunken log2 fold change” value is -0.332.
Then RRIRHRPPRLPRPRPRPWYIPRP, with -0.549.
Then RRIRLRPPRLPRPRPRPKMIPRP, with -0.378; and RRIRERPPRLPRPRPRPLDRPRP, with 0.0551.
Turning to RRIRLRPPRLPRPRPRPLQIPRP, the “shrunken log2 fold change” value is -0.092.
For RRIRMRPPRLPRPRPRPSHAPRP the value was 0.282.
For RRIRSRPPRLPRPRPRPMFKPRP the value was -0.407; for RRIRFRPPRLPRPRPRPIPEPRP, 0.236.
For RRIRKRPPRLPRPRPRPIFDPRP the value was 0.205; for RRIRNRPPRLPRPRPRPDKFPRP, -0.188.
As for RRIRFRPPRLPRPRPRPSRPPRP, the “shrunken log2 fold change” value came to 0.616.
Then RRIRRRPPRLPRPRPRPGPRPRP, with 0.917; and RRIRERPPRLPRPRPRPCHHPRP, with -0.209; and RRIRARPPRLPRPRPRPRHSPRP, with -0.00589.
Then RRIRMRPPRLPRPRPRPWNTPRP, with 0.000609; and RRIRERPPRLPRPRPRPTVRPRP, with -0.00266.
For RRIRMRPPRLPRPRPRPSHLPRP the value was -0.123; for RRIRDRPPRLPRPRPRPPTMPRP, -0.061; for RRIRGRPPRLPRPRPRPFMEPRP, -0.114.
Regarding RRIRMRPPRLPRPRPRPRYYPRP, the “shrunken log2 fold change” value is -0.261.
Then RRIRIRPPRLPRPRPRPGKCPRP, with -0.215; and RRIRKRPPRLPRPRPRPWQIPRP, with 0.141; and RRIRARPPRLPRPRPRPFVDPRP, with 0.302.
For RRIRVRPPRLPRPRPRPWVDPRP the value was 0.0379; for RRIRNRPPRLPRPRPRPTAPPRP, 0.517; for RRIRYRPPRLPRPRPRPEWTPRP, -0.247.
Then RRIRLRPPRLPRPRPRPQCGPRP, with 0.0192; and RRIRLRPPRLPRPRPRPAVVPRP, with 0.028.
RRIRRRPPRLPRPRPRPLIVPRP: the “shrunken log2 fold change” value is -0.0866.
As for RRIRDRPPRLPRPRPRPVNIPRP, the “shrunken log2 fold change” value was determined as 0.0452.
Turning to RRIRYRPPRLPRPRPRPQVIPRP, the “shrunken log2 fold change” value is -0.0134.
Then RRIRHRPPRLPRPRPRPMCGPRP, with -0.181; and RRIRQRPPRLPRPRPRPRGDPRP, with 0.346; and RRIRFRPPRLPRPRPRPRSFPRP, with -0.138.
Turning to RRIRERPPRLPRPRPRPCYMPRP, the “shrunken log2 fold change” value is -0.0163.
For RRIRERPPRLPRPRPRPITEPRP the value was -0.159; for RRIRNRPPRLPRPRPRPQVTPRP, -0.134.
For the sequence RRIRDRPPRLPRPRPRPIINPRP, the “shrunken log2 fold change” value was 0.423.
Then RRIRMRPPRLPRPRPRPPPQPRP, with 1.79.
